Experimental data taken from patent US20090018067A1 (published 2009).

Assays:
Assay in all cases: soluble HLA class II competition assay against a biotinylated control peptide, affinity grade
[1] = target: T1, HLA DRB1*0401 (purified recombinant soluble HLA class II molecule) (human)
T1 construct: also called DRB*0401

[2] = target: T2, HLA DRB1*0701 (purified recombinant soluble HLA class II molecule) (human)
T2 construct: also called DRB*0701

[3] = target: T3, HLA DRB1*0101 (purified recombinant soluble HLA class II molecule) (human)
T3 construct: also called DRB*0101

[4] = target: HLA DRB1*1501 (purified recombinant soluble HLA class II molecule) (human)

Measured: binding result

VDTSKNQFSLRLSSVTAADTA (Synthetic Fmoc peptide) [Tregitope-074]
binds: all assays above
